{
  "source": "patent US8105605B2",
  "about": "“Allergen formulation” (Allergy Therapeutics (UK) Ltd., priority 1997, dated 2012)",
  "molecules": {"B1": {"name": "ovalbumin (protein, UniProt P01012 2-386, looked up)", "Ovalbumin": "GSIGAASMEFCFDVFKELKVHHANENIFYCPIAIMSALAMVYLGAKDSTRTQINKVVRFDKLPGFGDSIEAQCGTSVNVHSSLRDILNQITKPNDVYSFSLASRLYAEERYPILPEYLQCVKELYRGGLEPINFQTAADQARELINSWVESQTNGIIRNVLQPSSVDSQTAMVLVNAIVFKGLWEKAFKDEDTQAMPFRVTEQESKPVQMMYQIGLFRVASMASEKMKILELPFASGTMSMLVLLPDEVSGLEQLESIINFEKLTEWTSSNVMEERKIKVYLPRMKMEEKYNLTSVLMAMGITDVFSSSANLSGISSAESLKISQAVHAAHAEINEAGREVVGSAEAGVDAASVSEEFRADHPFLFCIKHIATNAVLFFGRCVSP", "notes": "ovalbumin (XOA), a food allergen from chicken eggs, 200 μg/mL in phosphate buffered saline diluted with an equal volume of PBS"}},
  "key": {"[1]": {"tested_on": "allergen specific antibodies to ovalbumin (XOA): IgG1, IgG2a, IgG2b", "assay": "ELISA of serum IgG1, IgG2a and IgG2b antibodies after subcutaneous immunisation and booster of mice", "assay_type": "in vivo, BALB/c female mice", "details": "BALB/c mice, 0.2 mL s.c., boosted at day 21, bled 14 days after booster", "method": "(§1) TH1 inducing activity in mice can be equated with the production of IgG2a and IgG2b antibodies and the TH2 inducing activity with the production of IgG 1 antibodies and IgE antibodies.\n(§2) Groups of 8 BALB/c female mice, 6-8 weeks of age, were injected subcutaneously in the inguinal area with 0.2 mL of one of the following vaccines:\n(§3) XOA+Tyrosine: The XOA tyrosine adsorbate prepared in Preparation 2 above was diluted with an equal volume of phosphate buffered saline within 30 min prior to injection.\nXOA+Tyrosine+MPL: The XOA tyrosine adsorbate prepared in Preparation 2 above was diluted with an equal volume of MPL®-AF at 500 μg/mL in phosphate buffered saline within 30 min prior to injection.\nXOA+MPL: XOA was dissolved in phosphate buffered saline at 200 μg/mL and diluted with an equal volume of MPL®-AF at 500 μg/mL in phosphate buffered saline within 30 min prior to injection.\nXOA Alone: XOA was dissolved at 200 μg/mL in phosphate buffered saline and diluted with an equal volume of phosphate buffered saline.\nTwenty-one days later the four groups of mice were boosted with 0.2 mL of freshly prepared vaccines. Fourteen days following the booster the mice were bled and the sera separated and stored at −70° C. until assay.\n(§4) The sera were assayed by conventional ELISA technique using horseradish conjugated goat anti-mouse IgG1, IgG2a, and IgG2b antibodies purchased from Southern Biotechnology, Inc. (Birmingham, Ala.) and used according to the manufacturer's instruction. The IgG1, IgG2a, and IgG2b titers represent the reciprocal serum dilution giving a reading of >0.1 OD units at A490. The serum IgE levels were measured using an anti-IgE capture ELISA followed by the use of a biotinylated ovalbumin probe. Binding was measured following the addition of a horseradish conjugated strepavidin preparation."}, "[2]": {"tested_on": "allergen specific IgE antibody (ovalbumin)", "assay": "anti-IgE capture ELISA with biotinylated ovalbumin probe on serum of immunised mice", "assay_type": "in vivo, BALB/c female mice", "details": "BALB/c mice, 0.2 mL s.c., boosted at day 21, bled 14 days after booster; serum at 1/10 dilution", "method": "as §1, §2, §3\nXOA+Tyrosine+MPL: The XOA tyrosine adsorbate prepared in Preparation 2 above was diluted with an equal volume of MPL®-AF at 500 μg/mL in phosphate buffered saline within 30 min prior to injection. […]\nas §4"}},
  "data": [
    {"molecule": "B1", "values": [
      {"measurement": "IgG1 titer (reciprocal serum dilution giving a reading of >0.1 OD units at A490)", "setting": "[1]", "value": 6400},
      {"measurement": "IgG2a Titer (reciprocal serum dilution giving a reading of >0.1 OD units at A490)", "setting": "[1]", "value": "<100"},
      {"measurement": "IgG2b Titer (reciprocal serum dilution giving a reading of >0.1 OD units at A490)", "setting": "[1]", "value": "<100"},
      {"measurement": "IgE OD at 1/10 Dilution", "setting": "[2]", "value": 0.235, "unit": "OD units at A490"}
    ]}
  ]
}
